Measurements as given in patent US20210388087A1 (Chugai, published 2021).

biological target: human CD137 on HDLM-2 cells (human, UniProt Q07011 24-255); assay: cell-based or functional assay
Sequence (Q07011 24-255): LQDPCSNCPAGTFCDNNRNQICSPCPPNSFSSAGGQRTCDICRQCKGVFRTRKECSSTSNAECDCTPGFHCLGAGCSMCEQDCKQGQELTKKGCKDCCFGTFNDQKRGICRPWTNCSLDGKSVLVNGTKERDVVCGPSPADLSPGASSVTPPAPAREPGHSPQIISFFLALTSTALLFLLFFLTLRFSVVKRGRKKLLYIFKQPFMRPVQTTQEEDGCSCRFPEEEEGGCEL

Binder	Agonistic activity compared to B, antibody 6 ug/mL	Agonistic activity compared to B, antibody 30 ug/mL	Agonistic activity compared to Ctrl, antibody 6 ug/mL	Agonistic activity compared to Ctrl, antibody 30 ug/mL	hIL-6 (pg/mL), antibody 6 ug/mL	hIL-6 (pg/mL), antibody 30 ug/mL
GPC3 ERY22-B (bispecific antibody, human IgG1, kappa, L234A L235A, N297A) heavy 1: DIVMTQSPLSLPVTPGEPASISCRSSQSLVHSNRNTYLHWYQQKPGQAPRLLIYKVSNRFSGVPDRFSGSGSGTDFTLKISRVEAEDVGVYYCSQNTHVPPTFGQGTKLEIKSSASTKGPSVFPLAPSSKSTSGGTAALGCLVKDYFPEPVTVSWNSGALTSGVHTFPAVLQSSGLYSLSSVVTVPSSSLGTQTYICNVNHKPSNTKVDKKVEPKSCDKTHTCPPCPAPEAAGGPSVFLFPPKPKDTLMISRTPEVTCVVVDVSHEDPEVKFNWYVDGVEVHNAKTKPREEQYASTYRVVSVLTVLHQDWLNGKEYKCKVSNKALPAPIEKTISKAKGQPREPQVCTLPPSRDELTKNQVSLWCLVKGFYPSDIAVEWESNGQPENNYKTTPPVLDSDGSFFLYSKLTVDKSRWQQGNVFSCSVMHEALHNHYTQKSLSLSPHHHHHHHH light 1: QVQLVQSGAEVKKPGASVKVSCKASGYTFTDYEMHWIRQPPGQGLEWIGAIDPKTGDTAYSQKFKGRVTLTADKSTSTAYMELSSLTSEDTAVYYCTRFYSYTYWGQGTLVTVSSASVAAPSVFIFPPSDEQLKSGTASVVCLLNNFYPREAKVQWKVDNALQSGNSQESVTEQDSKDSTYSLSSTLTLSKADYEKHKVYACEVTHQGLSSPVTKSFNRGEC heavy 2: QVQLQQWGAGLLKPSETLSLTCAVYGGSFSGYYWSWIRQSPEKGLEWIGEINHGGYVTYNPSLESRVTISVDTSKNQFSLKLSSVTAADTAVYYCARDYGPGNYDWYFDLWGRGTLVTVSSASTKGPSVFPLAPSSKSTSGGTAALGCLVKDYFPEPVTVSWNSGALTSGVHTFPAVLQSSGLYSLSSVVTVPSSSLGTQTYICNVNHKPSNTKVDKKVEPKSCDKTHTCPPCPAPEAAGGPSVFLFPPKPKDTLMISRTPEVTCVVVDVSHEDPEVKFNWYVDGVEVHNAKTKPREEQYASTYRVVSVLTVLHQDWLNGKEYKCKVSNKALPAPIEKTISKAKGQPREPQVYTLPPSRCELTKNQVSLSCAVKGFYPSDIAVEWESNGQPENNYKTTPPVLDSDGSFFLVSKLTVDKSRWQQGNVFSCSVMHEALHNHYTQKSLSLSP light 2: not shown	100%	100%	347%	380%	4520 pg/mL	4340 pg/mL
GPC3 ERY22-dBBDu_183/L063 (bispecific antibody, human IgG1, kappa, L234A L235A, N297A) heavy 1: DIVMTQSPLSLPVTPGEPASISCRSSQSLVHSNRNTYLHWYQQKPGQAPRLLIYKVSNRFSGVPDRFSGSGSGTDFTLKISRVEAEDVGVYYCSQNTHVPPTFGQGTKLEIKSSASTKGPSVFPLAPSSKSTSGGTAALGCLVKDYFPEPVTVSWNSGALTSGVHTFPAVLQSSGLYSLSSVVTVPSSSLGTQTYICNVNHKPSNTKVDKKVEPKSCDKTHTCPPCPAPEAAGGPSVFLFPPKPKDTLMISRTPEVTCVVVDVSHEDPEVKFNWYVDGVEVHNAKTKPREEQYASTYRVVSVLTVLHQDWLNGKEYKCKVSNKALPAPIEKTISKAKGQPREPQVCTLPPSRDELTKNQVSLWCLVKGFYPSDIAVEWESNGQPENNYKTTPPVLDSDGSFFLYSKLTVDKSRWQQGNVFSCSVMHEALHNHYTQKSLSLSPHHHHHHHH light 1: QVQLVQSGAEVKKPGASVKVSCKASGYTFTDYEMHWIRQPPGQGLEWIGAIDPKTGDTAYSQKFKGRVTLTADKSTSTAYMELSSLTSEDTAVYYCTRFYSYTYWGQGTLVTVSSASVAAPSVFIFPPSDEQLKSGTASVVCLLNNFYPREAKVQWKVDNALQSGNSQESVTEQDSKDSTYSLSSTLTLSKADYEKHKVYACEVTHQGLSSPVTKSFNRGEC heavy 2: QVQLVESGGGLVQPGRSLRLSCAASGFTFSNAWMHWVRQAPGKGLEWVAQIKDKGNAYAAYYAPSVKGRFTISRDDSKNSIYLQMNSLKTEDTAVYYCHYVHYASASTVLPAFGVDAWGQGTTVTVSSASTKGPSVFPLAPSSKSTSGGTAALGCLVKDYFPEPVTVSWNSGALTSGVHTFPAVLQSSGLYSLSSVVTVPSSSLGTQTYICNVNHKPSNTKVDKKVEPKSCDKTHTCPPCPAPEAAGGPSVFLFPPKPKDTLMISRTPEVTCVVVDVSHEDPEVKFNWYVDGVEVHNAKTKPREEQYASTYRVVSVLTVLHQDWLNGKEYKCKVSNKALPAPIEKTISKAKGQPREPQVYTLPPSRCELTKNQVSLSCAVKGFYPSDIAVEWESNGQPENNYKTTPPVLDSDGSFFLVSKLTVDKSRWQQGNVFSCSVMHEALHNHYTQKSLSLSPDYKDDDDK light 2: DIVMTQSPLSLPVTPGEPASISCRSSQELVHTNRHTYLHWYQQKPGQAPRLLIYKVSNRFPGVPDRFSGSGSGTDFTLKISRVEAEDVGVYYCAQGTQVPFTFGQGTKLEIKRTVAAPSVFIFPPSDEQLKSGTASVVCLLNNFYPREAKVQWKVDNALQSGNSQESVTEQDSKDSTYSLSSTLTLSKADYEKHKVYACEVTHQGLSSPVTKSFNRGEC	-1.27%	6.51%	-4.41%	24.7%	968 pg/mL	1130 pg/mL
GPC3 ERY22-dBBDu_183/L072 (bispecific antibody, human IgG1, kappa, L234A L235A, N297A) heavy 1: DIVMTQSPLSLPVTPGEPASISCRSSQSLVHSNRNTYLHWYQQKPGQAPRLLIYKVSNRFSGVPDRFSGSGSGTDFTLKISRVEAEDVGVYYCSQNTHVPPTFGQGTKLEIKSSASTKGPSVFPLAPSSKSTSGGTAALGCLVKDYFPEPVTVSWNSGALTSGVHTFPAVLQSSGLYSLSSVVTVPSSSLGTQTYICNVNHKPSNTKVDKKVEPKSCDKTHTCPPCPAPEAAGGPSVFLFPPKPKDTLMISRTPEVTCVVVDVSHEDPEVKFNWYVDGVEVHNAKTKPREEQYASTYRVVSVLTVLHQDWLNGKEYKCKVSNKALPAPIEKTISKAKGQPREPQVCTLPPSRDELTKNQVSLWCLVKGFYPSDIAVEWESNGQPENNYKTTPPVLDSDGSFFLYSKLTVDKSRWQQGNVFSCSVMHEALHNHYTQKSLSLSPHHHHHHHH light 1: QVQLVQSGAEVKKPGASVKVSCKASGYTFTDYEMHWIRQPPGQGLEWIGAIDPKTGDTAYSQKFKGRVTLTADKSTSTAYMELSSLTSEDTAVYYCTRFYSYTYWGQGTLVTVSSASVAAPSVFIFPPSDEQLKSGTASVVCLLNNFYPREAKVQWKVDNALQSGNSQESVTEQDSKDSTYSLSSTLTLSKADYEKHKVYACEVTHQGLSSPVTKSFNRGEC heavy 2: QVQLVESGGGLVQPGRSLRLSCAASGFTFSNAWMHWVRQAPGKGLEWVAQIKDKGNAYAAYYAPSVKGRFTISRDDSKNSIYLQMNSLKTEDTAVYYCHYVHYASASTVLPAFGVDAWGQGTTVTVSSASTKGPSVFPLAPSSKSTSGGTAALGCLVKDYFPEPVTVSWNSGALTSGVHTFPAVLQSSGLYSLSSVVTVPSSSLGTQTYICNVNHKPSNTKVDKKVEPKSCDKTHTCPPCPAPEAAGGPSVFLFPPKPKDTLMISRTPEVTCVVVDVSHEDPEVKFNWYVDGVEVHNAKTKPREEQYASTYRVVSVLTVLHQDWLNGKEYKCKVSNKALPAPIEKTISKAKGQPREPQVYTLPPSRCELTKNQVSLSCAVKGFYPSDIAVEWESNGQPENNYKTTPPVLDSDGSFFLVSKLTVDKSRWQQGNVFSCSVMHEALHNHYTQKSLSLSPDYKDDDDK light 2: DIVMTQSPLSLPVTPGEPASISCQASQELVHMNRNTYLHWYQQKPGQAPRLLIYKVSNRFPGVPDRFSGSGSGTDFTLKISRVEAEDVGVYYCAQGTSVPFTFGQGTKLEIKRTVAAPSVFIFPPSDEQLKSGTASVVCLLNNFYPREAKVQWKVDNALQSGNSQESVTEQDSKDSTYSLSSTLTLSKADYEKHKVYACEVTHQGLSSPVTKSFNRGEC	3.21%	15.8%	11.1%	59.8%	1130 pg/mL	1450 pg/mL
GPC3 ERY22-dBBDu_167/L091 (bispecific antibody, human IgG1, kappa, L234A L235A, N297A) heavy 1: DIVMTQSPLSLPVTPGEPASISCRSSQSLVHSNRNTYLHWYQQKPGQAPRLLIYKVSNRFSGVPDRFSGSGSGTDFTLKISRVEAEDVGVYYCSQNTHVPPTFGQGTKLEIKSSASTKGPSVFPLAPSSKSTSGGTAALGCLVKDYFPEPVTVSWNSGALTSGVHTFPAVLQSSGLYSLSSVVTVPSSSLGTQTYICNVNHKPSNTKVDKKVEPKSCDKTHTCPPCPAPEAAGGPSVFLFPPKPKDTLMISRTPEVTCVVVDVSHEDPEVKFNWYVDGVEVHNAKTKPREEQYASTYRVVSVLTVLHQDWLNGKEYKCKVSNKALPAPIEKTISKAKGQPREPQVCTLPPSRDELTKNQVSLWCLVKGFYPSDIAVEWESNGQPENNYKTTPPVLDSDGSFFLYSKLTVDKSRWQQGNVFSCSVMHEALHNHYTQKSLSLSPHHHHHHHH light 1: QVQLVQSGAEVKKPGASVKVSCKASGYTFTDYEMHWIRQPPGQGLEWIGAIDPKTGDTAYSQKFKGRVTLTADKSTSTAYMELSSLTSEDTAVYYCTRFYSYTYWGQGTLVTVSSASVAAPSVFIFPPSDEQLKSGTASVVCLLNNFYPREAKVQWKVDNALQSGNSQESVTEQDSKDSTYSLSSTLTLSKADYEKHKVYACEVTHQGLSSPVTKSFNRGEC heavy 2: QVQLVESGGGLVQPGRSLRLSCAASGFTFSNAWMHWVRQAPGKGLEWVAQIKDKGNLYAAYYAPSVKGRFTISRDDSKNSIYLQMNSLKTEDTAVYYCHYVHYASAGGGLPGFGVDAWGQGTTVTVSSASTKGPSVFPLAPSSKSTSGGTAALGCLVKDYFPEPVTVSWNSGALTSGVHTFPAVLQSSGLYSLSSVVTVPSSSLGTQTYICNVNHKPSNTKVDKKVEPKSCDKTHTCPPCPAPEAAGGPSVFLFPPKPKDTLMISRTPEVTCVVVDVSHEDPEVKFNWYVDGVEVHNAKTKPREEQYASTYRVVSVLTVLHQDWLNGKEYKCKVSNKALPAPIEKTISKAKGQPREPQVYTLPPSRCELTKNQVSLSCAVKGFYPSDIAVEWESNGQPENNYKTTPPVLDSDGSFFLVSKLTVDKSRWQQGNVFSCSVMHEALHNHYTQKSLSLSPDYKDDDDK light 2: DIVMTQSPLSLPVTPGEPASISCSASESLLHNNRHTYLHWYQQKPGQAPRLLIYRVSNRFNGVPDRFSGSGSGTDFTLKISRVEAEDVGVYYCGQGTQVPFTFGQGTKLEIKRTVAAPSVFIFPPSDEQLKSGTASVVCLLNNFYPREAKVQWKVDNALQSGNSQESVTEQDSKDSTYSLSSTLTLSKADYEKHKVYACEVTHQGLSSPVTKSFNRGEC	-2.21%	1.1%	-7.68%	4.19%	935 pg/mL	944 pg/mL
